Laboratory results taken from the Immune Epitope Database (IEDB).

Tests used:
[1] = target: HLA-A*68:02; assay: IEDB peptide-MHC binding, purified MHC/competitive/radioactivity; filed as Kd, often an IC50 or EC50 that approximates it; ≥ and ≤ were set here for values at or beyond the usual limits of such assays
[2] = target: HLA-B*15:03; assay: as above; conditions: source organism: Vaccinia virus WR
[3] = target: HLA-A*30:01; assay: as above
[4] = target: HLA-B*57:01; assay: as above
[5] = target: HLA-A*11:01; assay: IEDB peptide-MHC binding, purified MHC/competitive/fluorescence; ≥ and ≤ were set here for values at or beyond the usual limits of such assays
[6] = target: HLA-A*24:02; assay: as above
[7] = target: HLA-A*26:01; assay: IEDB peptide-MHC binding, purified MHC/competitive/radioactivity; filed as Kd, often an IC50 or EC50 that approximates it; ≥ and ≤ were set here for values at or beyond the usual limits of such assays
[8] = target: HLA-A*30:02; assay: as above; conditions: source organism: Dengue virus 3 Martinique/1243/1999
[9] = target: HLA-A*02:01; assay: IEDB peptide-MHC binding, purified MHC/competitive/fluorescence; ≥ and ≤ were set here for values at or beyond the usual limits of such assays
[10] = target: HLA-A*03:01; assay: as above; conditions: source organism: Zaire ebolavirus
[11] = target: HLA-B*15:01; assay: IEDB peptide-MHC binding, purified MHC/competitive/radioactivity; filed as Kd, often an IC50 or EC50 that approximates it; ≥ and ≤ were set here for values at or beyond the usual limits of such assays
[12] = target: HLA-B*35:01; assay: as above
[13] = target: HLA-A*02:02; assay: as above
[14] = target: HLA-A*02:03; assay: as above
[15] = target: HLA-A*02:06; assay: as above
[16] = target: HLA-B*07:02; assay: as above
[17] = target: HLA-A*02:01; assay: as above
[18] = target: HLA-B*51:01; assay: as above
[19] = target: HLA-B*53:01; assay: as above; conditions: source organism: Dengue virus 1 Brazil/97-11/1997
[20] = target: HLA-B*51:01; assay: IEDB peptide-MHC binding, purified MHC/competitive/fluorescence; filed as Kd, often an IC50 or EC50 that approximates it; ≥ and ≤ were set here for values at or beyond the usual limits of such assays; conditions: source organism: West Nile virus
[21] = target: HLA-A*32:01; assay: IEDB peptide-MHC binding, purified MHC/competitive/radioactivity; filed as Kd, often an IC50 or EC50 that approximates it; ≥ and ≤ were set here for values at or beyond the usual limits of such assays
[22] = target: HLA-B*08:01; assay: as above; conditions: source organism: Vaccinia virus WR
[23] = target: HLA-A*24:03; assay: IEDB peptide-MHC binding, purified MHC/direct/fluorescence; filed as Kd, often an IC50 or EC50 that approximates it; ≥ and ≤ were set here for values at or beyond the usual limits of such assays; conditions: source organism: Salmonella enterica
[24] = source organism: Dengue virus 3 Martinique/1243/1999
[25] = source organism: Zaire ebolavirus
[26] = source organism: Vaccinia virus
[27] = source organism: Dengue virus 1 Brazil/97-11/1997
[28] = source organism: Lymphocytic choriomeningitis virus (strain Armstrong) (clone 53b)
[29] = source organism: Dengue virus 3 China/80-2/1980
[30] = source organism: Lassa virus GA391
[31] = source organism: Dengue virus 2 Jamaica/1409/1983
[32] = source organism: Human immunodeficiency virus type 1 (CLONE 12)
[33] = source organism: Vaccinia virus WR
[34] = source organism: Trypanosoma cruzi
[35] = source organism: Dengue virus 2 16681-PDK53
[36] = source organism: Vaccinia virus Copenhagen

With ETPNLAERV the Kd ([1]; source organism: Dengue virus 1 Singapore/S275/1990) was 0.0248 µM.
Sequence RKISSKNSM has a Kd [2] of 0.000114 µM.
Sequence LTSRDGEPRM has a Kd [3, 24] of 10.9 µM and a Kd [4, 24] of 1.32 µM.
EYPPWLTEK was tested, and the IC50 [5, 25] was no less than 123 µM and the IC50 [6, 25] was 9.58 µM.
Sequence IAIGIITLY has a Kd [7, 24] of 0.013 µM, a Kd [8] of 2.68 µM and a Kd [4, 24] of 0.00362 µM.
ITGGRRTRR gave an IC50 [9, 25] of no less than 177 µM, an IC50 [10] of 6.85 µM and an IC50 [5, 25] of 9.09 µM.
MVHQIFGSAY showed a Kd [7, 24] of 0.0116 µM, a Kd [8] of no less than 61.9 µM and a Kd [11, 24] of 0.0372 µM. For the same sequence, the Kd [12, 24] was 0.018 µM.
In the case of VSYNDYFNV, the IC50 [9, 26] is reported as 0.743 µM, the IC50 [5, 26] is reported as 14.3 µM and the IC50 [6, 26] is reported as no less than 77.1 µM.
GTAKLRWFV was tested, and the Kd [1, 27] was 0.0307 µM.
ALPHIIDEV was tested, and the Kd [13, 28] was 0.013 µM, the Kd [14, 28] was 0.00034 µM and the Kd [15, 28] was 0.066 µM. For the same sequence, the Kd [1, 28] was 0.179 µM.
For YKTLCDMIK, the IC50 [5, 26] was no less than 230 µM.
Work on RPINEKEENM yielded a Kd [16, 29] of 0.222 µM and a Kd [12, 29] of 1.83 µM.
HSFEEMYRH showed an IC50 [10] of 49.4 µM and an IC50 [5, 25] of 3.29 µM.
In the case of GIYIEGLMH, the IC50 [9, 25] is reported as no less than 180 µM, the IC50 [10] is reported as 16.1 µM and the IC50 [5, 25] is reported as 9.23 µM.
IQTMDGQEL showed a Kd [2] of 0.144 µM.
For ELDSNLYRI, the Kd ([1]; source organism: Homo sapiens) was 0.916 µM.
ILAADLEKL showed a Kd [13, 30] of 0.0323 µM, a Kd [14, 30] of 0.02 µM and a Kd [15, 30] of 0.195 µM. For the same sequence, the Kd [1, 30] was 4.29 µM.
Work on ESHNQTFLI yielded a Kd [1, 31] of 0.00351 µM.
Sequence RKVKSYNYM has a Kd [2] of 0.00258 µM.
PLTFGWCYKL was tested, and the Kd [17, 32] was 6.85 µM, the Kd [13, 32] was no less than 29.4 µM and the Kd [14, 32] was 19.3 µM. It also gave a Kd [15, 32] of 13.2 µM and a Kd [1, 32] of no less than 20.1 µM.
In the case of VPSIKSGNDI, the Kd [16, 27] is reported as 1.37 µM, the Kd [18, 27] is reported as no less than 22 µM and the Kd [19] is reported as no less than 47.6 µM.
VLQRNCAAYL showed a Kd ([17]; source organism: Homo sapiens) of 0.0957 µM, a Kd ([13]; source organism: Homo sapiens) of 0.018 µM and a Kd ([14]; source organism: Homo sapiens) of 0.0948 µM. It also gave a Kd ([1]; source organism: Homo sapiens) of no less than 60 µM.
RPAVGGKTV gave a Kd [20] of no less than 20 µM.
IKVLVEHGF gave a Kd [3, 33] of 5.93 µM, a Kd [21, 33] of 11.3 µM and a Kd [22] of no less than 77.7 µM. For the same sequence, the Kd [11, 33] was 9.69 µM and the Kd [2] was 0.473 µM.
In the case of NISGQSPAR, the IC50 [5, 25] is reported as 47.6 µM.
With LLGLWGFAAQ the Kd [17, 34] was 1.1 µM, the Kd [13, 34] was 1.24 µM and the Kd [14, 34] was 0.394 µM. For the same sequence, the Kd [15, 34] was 0.462 µM and the Kd [1, 34] was 1.82 µM.
With ANGSLFTEQ the IC50 [5, 33] was no less than 104 µM.
QPENLEYTIV showed a Kd [16, 35] of 4.62 µM and a Kd [18, 35] of no less than 69.6 µM.
ILMGLDKGW showed a Kd [4, 27] of 0.049 µM.
Work on IGIGILLTW yielded a Kd [19] of 5.45 µM and a Kd [4, 27] of 0.272 µM.
For RAYMATTIL, the Kd [2] was 0.0175 µM.
For ETILELTDAL, the Kd [7, 31] was 0.277 µM and the Kd [1, 31] was 0.134 µM.
For MAVGLVSILA, the Kd [1, 24] was 0.00323 µM.
For HHQINYHGF, the Kd [23] was 0.965 µM.
Sequence FTQQALSSF has a Kd [2] of 0.00643 µM.
GKRSNTTGK showed an IC50 [9, 25] of no less than 14300 µM and an IC50 [10] of 52.6 µM.
LMRSICVSI was tested, and the Kd [21, 36] was 0.38 µM and the Kd [11, 36] was 0.0634 µM.
